Data published in a protein production outcome set (Wang et al. 2014).

Assay: label from the status in PepcDB records

Row | Sequence | protein production
1 | MMRRVSLGSRLALLFAACTATVSLGAGLLFSRASEQHFVELDQQLLDSRLSLFRTQLAGVSTADELQARLPALRDELSHQADLALRISASNGATWFESRSGLPHAAQATGLATLHAPGIDYRSLSVPLTQGAMQSPRLTLYLDITHHQHFLQGMQRLIWLTVGLSALITALLGAWAARSGLRPLRQMGQVAASVSARSLTTRLPVAQMPEELAELASSMNAMLQRLDDAFQRLSAFSADIAHELRTPLSNLLTHTQVTLTRPRSLEEYREALHGNLEELQWMAQMINDMLFLAKADHGLLVPGDAPLALHDEVDALLEYYAPLAEDSDVQMLREGEAVLHGDQHMLRRALSNLLDNAMRFTPAGGQIKVTLGPGPTINVANTGLAIDPAALPRLFDRFYRVDPARREGSSEHAGLGLAITRSIVQAHGGCIRAECEGGWTRFVIEFTQDR | failed
2 | MLYLKRILIVGLSFVVGLINIIGNNYTVFALEKNTLVHQNVMSMIQSQRGGLFDPIYTESLEDNWQGDYIYYGEDTDGSALKWQLLDSDNKDFSKNANSTMFLFSDKTIGTSFWYRENDYGFDYSNVKPGETPIYWQKGYEWDKSDLKTNMEDEMKNKFSSIENEGIIFSSKSSEDAQNVAVGLEKLGTTEMTASKWFPLSIQELTNKCYGFSSVPFNRNQAPLGLHTGDKSRVSSDDKNYLIRSYEEHWTKPMENGMRYHPVFVLNSNSVYGANCAGGLNYGNMYTVQSMRPAMNIDTSKVMLVKSHNQKEIIGIKAVNDSKTNEFKLTLLDDKQKLNIENIKTERDKITFDFEAIGNGKYLSVVVQDENNNVMYYGNIKDNLDKVNVGTMTIDLNQIGLNSKSFSSGEYKLSIFTEQLNFDKKTDYSSKFVDVEVVQNNVPPAVINKVPTIVAEDKVLTVGDTFDPLKDVTAYDNEDGIIKLTEANIAANDVNTNKEGTYNVTYKVTDKQGASSTKTITIDVIERIVIPENKPVDKTNNDTNSSNSSKVPQTGDINNIGVLAVTLMMSGSIVIGCNRKKSKANSLSEK | failed
3 | MGHHHHHHSHMIQYIPQRPPIVMISTLVSAEKNVTETELEIPAHGLFVKDGVLHEPGLIENVAQTAAAGVGYACTLTSQPVPVGFIGAVKNLEIDYLPKVGDVLETRVEVLEEIFDMTLIKGESFVKGKRVLTCEMKIVLKK | failed
4 | QGEEMNRSQEVTRDEESTRSEEVTREEMAAAGLTVTVTHSNEKHDLHVTSQQGSSEPVVQDLAQVVEEVIGVPQSFQKLIFKGKSLKEMETPLSALGIQDGCRVMLIGKKNSPQEEV | failed
5 | MEQSVPARGTSPARRLATAARHCLVLAVASILAACTTITAVTPNEPEQRLVWPGPPLQPRIEWVREVYNQKGLGVSPGFWGRIARFVLGEKEERFIRPHGILADEQIFALVDSGAGRVHLIDLKRGTYRLLPEEGKTPMVSPIGIARDSRGAIYVTDSGTGLIHRFSDDGDSFVALDLRPLHRPTGIAFNPVTGLLYVAETGAHRIVAFDSAGKETLRIGGSGMEPGAFNFPTDLAVMADGRLLVTDSLNSRIQIFTADGKPAGSFGEAGDTPGRFTRPKGVAVDSEGHIYVCDSQQDMVQIFDETGRLLLAFGDKGSLPGQFWMPSGIHIANDMIYVSDTYNQRVQVFRYLKEEPWGQDPHTPD | failed
6 | MKLLSQLLLFTSLTFPLSSFAALGEHPIILIHGFQAGQLQTKPNHDAVVADGKNYWQDYWLAKADDRIDWPSQERVAGKISTDYIWPKLQELSKNNTCKNGCILVTHSTGDLVARHLLDNQENW | failed
7 | MATIGSLLLWAITIYSYMIIGYILMSWFPNARESSFGQFLGSIVEPYLAPFRKIIPPLGMIDISPIVAIFALTFARYGVHAIFF | failed
8 | MNIRERKRKHLEACLEGEVAYQKTTTGLEGFRLRYQALAGLALSEVDLTTPFLGKTLKAPFLIGAMTGGEENGERINLALAEAAEALGVGMMLGSGRILLERPEALRSFRVRKVAPKALLIANLGLAQLRRYGRDDLLRLVEMLEADALAFHVNPLQEAVQRGDTDFRGLVERLAELLPLPFPVMVKEVGHGLSREAALALRDLPLAAVDVAGAGGTSWARVEEWVRFGEVRHPELCEIGIPTARAILEVREVLPHLPLVASGGVYTGTDGAKALALGADLLAVARPLLRPALEGAERVAAWIGDYLEELRTALFAIGARNPKEARGRVERV | not failed
9 | MSVGCARIRRALRHGTSPARQHDAAAASHRRAPVVRIRMDIDAALGEQYVDYRCSRCGMVAQAAVAGYGTGLVVNGVSLSNAQLEAEVGAARAARLAPCPRCGHRGRPALLGVLLVGATVGVVAAMAIGFTVAELFHRSDPEGRLAPVVGTATFVAVVATMTALKLRSVRRRVRFHRVML | failed
10 | MSELFSNDNIFLNVNVNSQNEAIEKAGKALVDSGAVTDAYIQAMKDREQVVSTFMGNGLAIPHGTDEAKTNVIHSGLTLLQIPEGVDWDGEVVKVVVGIAGKDGEHLDLLSKIAITFSEEENVDRIVQAKSAEEIKQVFEEADA | failed
11 | MRRPVSKWALLALLFTALLAADQWTKYLAVERLTVVFERGGDETLAERVRGFYTYRHLEPLSTEPYYVWRPVWRMNYVENPGAAWGLFRGHSQFFRNAFFTLVSVAAVAFILHYYRKLRQDQRYLQVALGLVLAGAVGNFVDRLARRYVIDFIEWYWWNRPDIRWPTFNVADSLIVVGVAMLVLHPGSRREAARAPARRDAAAERV | failed
12 | TLLLIFSFFVVTIGGLVQIVPLFYLENTIEKVEGVRPYTPLELAGRDIYIREGCYVCHSQMIRPMRDETERYGHYSLAAESMYDHPFQWGSKRTGPDLARVGERYSDEWHVDHLTNPQSVVPESIMPKYGFLSHTVIDGRYIRDLMSVHRIVGVPYSDEMLENAVADFKAQANPDADTDGLLERYGKAAVRNFDGQAELTEMDALISYLQVLGT | failed
13 | MPKVSVVTGFYNRCEHLERTIESILNQTYSDFELIVFDDASTDGTASRLLELKEKYDDPRFRFIIHEENKGFVKGLSEAISGAKGQYIAVQGSGDVSLPRRLELQVEFLDANPSVGAVGGAIYNIQEDTGTRNPQRFEKPIATFDDLLTSNPFTHGEVMYRLDLYKSIGGYRSGFTFAQDRDLWLRMAKKADLGIIPDFLYHRYTLLDGVSFVPDKTIRQRCFSEAAVRLALMPEEEGALAYSRLEAEGPTAVVPIADRAVQKFVPKAAIRLCLYGAPETGLHMARDYIQNPLRRTIVVVLISIYSSRLIKPLQDILYKSIFKGVSISKPIKSSLVKFTRRIQGK | failed
14 | MTPVLSLDMEDPIRFIDENGSFEVVKVGHNLAIHGKKIFDELAKRNLKIILDLKFCDIPSTVERSIKSWDHPAIIGFTVHSCAGYESVERALSATDKHVFVVVKLTSMEGSLEDYMDRIEKLNKLGCDFVLPGPWAKALREKIKGKILVPGIRMEVKADDQKDVVTLEEMKGIANFAVLGREIYLSENPREKIKRIKEMRL | not failed
15 | MISNALKQGNLSPELEEKLVCMQKQQENANSTNEWETCSRGSVNEEALTPSRQTDDTEWKIRTSLRRPNAMTTSSQFNRILKKNRSKNDEVAELGEQKQSQLERHKELLKKNILRKRSLLERNLQSEIHEDVKTKVQRHVRPLSNASPDEQSENERSGEPNLDFKR | failed
16 | MLSYKHSNATLPILWGEAKRGDFDDLDKAFTQLLLTIGKHRLYTHHTPPYLCAFNAFKMEFIAFDDTITSFFYKSDIDFSITPSNHNTEGFKHALDAFKAMSKSHKFVFDFKTQSQECKEFIKNRLNSSHLLSKIQIDKNNFFTIYQKWLEIVKPTIDINWEVAKTKDILDADYYLADLLSDGDKTIIEKLHTILRSSHYKLNRGVNELGKMDFMEVGFTDSQQAHQEFWSVYERPPKREFQASILERRDLLVPSDVRERKGAFFTPKIWVEKSQEYLAKALGQDYQEDCIIWDCAGGTGNLLRGLLNKANLYLSTLDHNDVAIVKDLAAKNHLKLLENHVFQFDFLNDDFFSDKTPKSLQEILKDKEKRKKLIIYINPPYAEAGNKSKMSGTGEHKAKVARDNLICEKYKNELGKANNEVFAQFFMRIYKELNGVILASFSTLKNLQGSNFKKFREIFKAKFLEGFMVPADTFDNVRGQFPIGFLVWDTSSILPKENPLNLGGNSKEEKQNSNLILDQDNLKDNPLKERFCLLDINAPNRKMCSQSRTRTKGTQKHSTAAPFETPLHTVSLEIFDSFGGFLGSKKIYTHTIDKMLTLADYLQKFQPTKRDTIFGYLDPGRNSFQHQNLIHISIIDKSKQSHVKYFPIIATTILLVSVFFSIRHCIKATWQNDRDQFYAPYDDAFQDDSEFKNNCLIFMLFHTQNRITTAQGTNHFIPFSETEVNAKERYSSHALLEFLKGEIKELKENDSLFLSAKKENKPLKFSPSASKVFDASREVYRYYHTQDFTNRPYNANASLYDIKEFFQGRNKQGKLNLPAKAKDEYYKQLYANLQDALKDLAKEIQPKVYEYGFLRE | failed
